Measured values taken from the supplement of paper PMC10899765.

Legend:
Details in all cases: 20 nM; 72 h
[1] = test system: MCF10A; experiment: percent viability (nuclei count relative to siNT); higher = more viable cells
Protocol: (§1)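 After 72 h, cells were fixed and stained with Hoechst and anti-fibrillarin, and nucleoli per nucleus were counted with CellProfiler. Values are plate-adjusted percent effect for the one-nucleolus and 5+ nucleoli phenotypes, normalised to siNT (0%) and to the positive controls siNOL11 or siKIF11 (100%), as the mean of biological triplicates. Percent viability is the nuclei count relative to siNT.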

[2] = test system: MCF10A; experiment: 5+ nucleoli phenotype percent effect (relative to siNT 0% and siKIF11 100%); higher = more cells with five or more nucleoli
Protocol: as §1

[3] = test system: MCF10A; experiment: one-nucleolus phenotype percent effect (relative to siNT 0% and siNOL11 100%); higher = more cells with one nucleolus (ribosome biogenesis inhibition)
Protocol: as §1

| Sequence | percent viability [1] [%] | 5+ nucleoli phenotype percent effect [2] [%] | one-nucleolus phenotype percent effect [3] [%] |
| --- | --- | --- | --- |
| UCACCCUGCAUCCCGCACCCAG [hsa-miR-3620-3p] | 77 | 11.8 | -11.9 |
| CAGCAGGAGGUGAGGGGAG [hsa-miR-6165] | 101 | 36.7 | -18.4 |
| AGGCCCUGUCCUCUGCCCCAG [hsa-miR-6775-3p] | 41.3 | 11.1 | 12.8 |
| UCAUUAUAUGUAUGAUCUGGAC [hsa-miR-4528] | 57.6 | -2.39 | -16.8 |
| CUGUACAGCCUCCUAGCUUUCC [hsa-let-7a-2-3p] | 43.3 | -34.3 | 2.44 |
| CUAUACGACCUGCUGCCUUUCU [hsa-let-7d-3p] | 84.7 | 18.1 | -15.3 |
| CAGAACAGGAGCAUAGAAAGGC [hsa-miR-4773] | 43.7 | 22.9 | -20.2 |
| UUUCUUCUUAGACAUGGCAACG [hsa-miR-4659a-3p] | 51.4 | -14.6 | -9.58 |
| AAGUGCCCCCACAGUUUGAGUGC [hsa-miR-371b-3p] | 84.2 | 68.5 | -25.4 |
| ACACAGUGCUUCAUCCACUACU [hsa-miR-3681-3p] | 76.6 | -3.88 | -4.5 |
| CUGGGAGGGGCUGGGUUUGGC [hsa-miR-6779-5p] | 36.8 | 2.1 | 10.8 |
| GGUGCAGUGCUGCAUCUCUGGU [hsa-miR-143-5p] | 89.5 | -0.693 | -7.79 |
| GUGACAUCACAUAUACGGCAGC [hsa-miR-489] | 22.4 | -33.1 | 53.7 |
| UAUUGCACAUUACUAAGUUGCA [hsa-miR-32-5p] | 123 | 9.82 | -7.37 |
| UGCGGCCGGUGCUCAACCUGC [hsa-miR-1199-3p] | 22.1 | -6.68 | 23.8 |
| ACUGGAAUUGGAGUCAAAA [hsa-miR-6128] | 105 | 36.5 | -18.6 |
| UGUCUGCCCGCAUGCCUGCCUCU [hsa-miR-346] | 32.5 | -26.4 | 31 |
| UGUAGUGUUUCCUACUUUAUGGA [hsa-miR-142-3p] | 82.8 | -20 | 23.4 |
| UAAAGUAAAUAUGCACCAAAA [hsa-miR-559] | 153 | 24 | -21.4 |
| AUGGAGAUAGAUAUAGAAAU [hsa-miR-620] | 62.9 | -31.1 | 24 |
| ACUUUAACAUGGAGGCACUUGC [hsa-miR-302d-5p] | 92.5 | 29.1 | -13.5 |
| CAACCUCGAGGAUCUCCCCAGC [hsa-miR-3150b-5p] | 48.1 | 20.8 | -5.6 |
| AGGCUGGAGUGAGCGGAG [hsa-miR-4430] | 12.7 | -22 | 57.5 |
| UGGGAUGAGGGAUUGAAGUGGA [hsa-miR-5187-5p] | 25.8 | 24.8 | -17.7 |
| AUAGCAAUUGCUCUUUUGGAA [hsa-miR-4766-3p] | 38.1 | -28.9 | 19.4 |
| AAGGGAGGAGGAGCGGAGGGGCCCU [hsa-miR-4739] | 19.6 | 4.78 | 21.1 |
| AUCUGCCAGCUUCCACAGUGG [hsa-miR-4727-5p] | 42.4 | -25.7 | 17.9 |
| UCCUCAUCACACUGCACCUUAG [hsa-miR-6072] | 32.4 | -18.4 | 13.4 |
| CUCCAGAGGGAAGUACUUUCU [hsa-miR-520a-5p] | 34.6 | -28.3 | 23.8 |
| ACGGAAUAUGUAUACGGAAUAUA [hsa-miR-3669] | 95.9 | 30.9 | -9.77 |
